Measured values taken from US20240109974A1 (SHANDONG SIMCERE BIOPHARMACEUTICAL, published 2024).
Numbering of substitutions follows the chain as printed.

T1: human TNFR2 on the surface of CHO-TNFR2 cells (human, UniProt P20333 23-461)
T1 construct: whole, on cells
T1 sequence (looked up): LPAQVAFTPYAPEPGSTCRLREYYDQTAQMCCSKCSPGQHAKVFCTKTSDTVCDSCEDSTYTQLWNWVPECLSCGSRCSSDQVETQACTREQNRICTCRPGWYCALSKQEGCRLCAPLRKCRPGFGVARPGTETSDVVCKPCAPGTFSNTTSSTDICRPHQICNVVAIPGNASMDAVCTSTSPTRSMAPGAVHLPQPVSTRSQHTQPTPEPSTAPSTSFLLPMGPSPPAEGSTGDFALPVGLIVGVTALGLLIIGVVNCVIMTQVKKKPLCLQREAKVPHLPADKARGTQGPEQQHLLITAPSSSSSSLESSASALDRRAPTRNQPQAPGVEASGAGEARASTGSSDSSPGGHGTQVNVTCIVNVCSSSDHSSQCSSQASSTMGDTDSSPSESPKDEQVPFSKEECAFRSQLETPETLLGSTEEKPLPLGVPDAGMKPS

B1: 001-Hu5 (antibody, V domains shown)
VH: EVQLVESGGGLVQPGGSLRLSCAASGFAFSTYDLSWVRQAPGKGLEWVAYINNGGISTYYSDTVKGRFTISRDNAKNTLYLQMNSLRAEDTAVYYCVRGPFYGSANYFDYWGQGTLVTVSS
VL: DIQMTQSPSSLSASVGDRVTITCRTSESIYSNLPWYQQKPGKSPKLLVYDATKLAEGVPSRFSGSGSGTDYTLTISSLQPEDFATYYCQHFWVTPWTFGQGTKVEIK
notes: Humanized form of #001; also called VH1 + VL4
B2: 001-Hu1 (antibody, V domains shown)
VH: B1 VH
VL: B1 VL with S43A, V48L
notes: Humanized form of #001; also called VH1 + VL1
B3: 001-Hu2 (antibody, V domains shown)
VH: B1 VH with T78S
VL: B1 VL with V48I, Y71F
notes: Humanized form of #001; also called VH2 + VL2
B4: 001-Hu3 (antibody, V domains shown)
VH: B1 VH
VL: B1 VL with S43A, V48I
notes: Humanized form of #001; also called VH1 + VL3
B5: 001-Hu4 (antibody, V domains shown)
VH: B1 VH with T78S
VL: B1 VL
notes: Humanized form of #001; also called VH2 + VL4
B6: 219-Hu3 (antibody, V domains shown)
VH: QVQLVQSGAEVKKPGSSVKVSCKASGYSFTNYWMNWVRQAPGQGLEWMGMIHPSDTETRLNQNFKDRVTITADKSTSTAYMELSSLRSEDTAVYYCARGEGLGAARSVSMDYWGQGTLVTVSS
VL: DIQMTQSPSSLSASVGDRVTITCRASQDISNYLNWYQQKPDGTVKLLIYYTAILHSGVPSRFSGSGSGTDYSLTISSLQPEDFATYFCQQGNTLPWTFGQGTKVEIK
notes: also called VH5 + VL5
B7: 219-Hu1 (antibody, V domains shown)
VH: B6 VH with S16A, G44R, A72R, K74T, T76A
VL: B6 VL
notes: also called VH3 + VL5
B8: 219-Hu2 (antibody, V domains shown)
VH: B6 VH with R67K, V68A
VL: B6 VL
notes: also called VH4 + VL5
B9: 219-Hu4 (antibody, V domains shown)
VH: B6 VH with R38K, M48I, R67K, V68A, I70L, A72V
VL: B6 VL
notes: also called VH6 + VL5
B10: 219-Hu5 (antibody, V domains shown)
VH: B6 VH with A72V
VL: B6 VL
notes: also called VH7 + VL5
B11: 224-Hu1 (antibody, V domains shown)
VH: QVQLVQSGAEVKKPGASVKVSCKASGFNNKDIYMHWVRQAPGQGLEWIGRIDPATGNTKHDPKFQDRVTMTSDTSTNTVYMELSSLRSEDTAVYYCARSPYGDFGAMDYWGQGTLVTVSS
VL: DIQMTQSPSSLSASVGDRVTITCTASSSVSSNYLHWYQQKPGKAPKLWIYSTSNLPSGVPSRFSGSGSGTDFTLTISSLQPEDFATYYCHQYHRSPWTFGQGTKVEIK
notes: Humanized form of #224; also called VH8 + VL6
B12: 224-Hu6 (antibody, V domains shown)
VH: B11 VH
VL: B11 VL with K43S, A44S
notes: Humanized form of #224; also called VH8 + VL7
B13: 224-Hu7 (antibody, V domains shown)
VH: QVQLVQSGSELKKPGASVKVSCKASGFNNKDIYMHWVRQAPGQGLEWMGRIDPATGNTKHDPKFQDKAVLSSDTSVSTAYLQISSLKAEDTAVYYCARSPYGDFGAMDYWGQGTLVTVSS
VL: B11 VL with W48L
notes: Humanized form of #224; also called VH9 + VL10
B14: 224-Hu2 (antibody, V domains shown)
VH: B13 VH
VL: B11 VL with K43S, A44S
notes: Humanized form of #224; also called VH9 + VL7
B15: 224-Hu3 (antibody, V domains shown)
VH: B13 VH
VL: B11 VL with W48L, P81A, F84A
notes: Humanized form of #224; also called VH9 + VL8
B16: 224-Hu4 (antibody, V domains shown)
VH: B13 VH
VL: B11 VL
notes: Humanized form of #224; also called VH9 + VL6
B17: 224-Hu5 (antibody, V domains shown)
VH: B13 VH
VL: B11 VL with W48L, F72Y, T73S
notes: Humanized form of #224; also called VH9 + VL9

These binders were tested against T1, human TNFR2 on the surface of CHO-TNFR2 … (assay: flow cytometry on CHO-TNFR2 cells; AUC against 001-WT).
Experimental: The transfected full-length plasmid of human TNFR2 was purchased from Sino Biological (Cat #HG10417-UT, NCBI Ref Seq: NM_001066.2). The experiment was conducted at a cell density within 80%. The cell medium was discarded; the cells were rinsed with PBS, and digested with 1 ml trypsin for 2 minutes; the digestion was stopped with a Ham's F12 complete medium containing 10% FBS, and then a cell suspension was made. The cell suspension was counted, and then an appropriate amount of cell suspension was centrifuged at 350×g; the supernatant was discarded; a corresponding volume of blocking solution (10% FBS+PBS) at a density of 1×10⁷ cells/ml was added to resuspend the cells, and the mixture was incubated at 4° C. for 30 minutes. After the incubation, the mixture was centrifuged at 350×g to remove the supernatant, and the cells were resuspended in a staining buffer (2% FBS+PBS) to a density of 2×10⁶ cells/ml, and spread onto a 96-well plate, with 50 μl of cell suspension added to each well for later use. The antibody was diluted with PBS for 10-fold gradient dilution from the highest concentration of 20 μg/m (twice the concentration); the diluted antibody was added to the well containing 50 μl of cell suspension, and placed on a microplate shaker for shaking at 500 rpm for 1 minute, so that the antibody was fully mixed with the cells; the mixture was incubated at 4° C. for 1 h. After the incubation, the cells were washed twice with the staining buffer, with 100 μl per well, and centrifuged at 350-g for 5 minutes, and the supernatant was discarded. The PE goat anti-Human IgG Fc antibody (ebioscience, Cat #12-4998-82) was diluted 250-fold with the staining buffer, with a volume of 100 μl per well added to the washed cell wells; the mixture was mixed evenly, and stained at 4° C. for 30 minutes. After the staining, similarly, the cells were washed twice with the staining buffer; finally, the cells were resuspended in 200 μl of staining buffer; signals were detected by a flow cytometer (Thermo Attune NxT). The stronger the signal, the stronger the binding ability of an antibody to TNFR2. The binding curve of an antibody was drawn with antibody concentration as the abscissa and corresponding mean fluorescence intensity (MFI) fold as the ordinate, and fitted with four parameters (GraphPad Prism9) to calculate the EC50 value.

**Q.** How did the “% Relative activity (Test antibody/WT antibody)” value turn out when B1 was run?
**A.** 87.8%

**Q.** How did the “% Relative activity (Test antibody/WT antibody)” value turn out when B2 was run?
**A.** 93.4%

**Q.** B3 was tested. Which “% Relative activity (Test antibody/WT antibody)” value did it give?
**A.** 88.2%

**Q.** Which “% Relative activity (Test antibody/WT antibody)” value does the source give for B4 here?
**A.** 87.8%

**Q.** How did the “% Relative activity (Test antibody/WT antibody)” value turn out when B5 was run?
**A.** 92.2%

These binders were tested against T1, human TNFR2 on the surface of CHO-TNFR2 … (assay: competition flow cytometry on CHO-TNFR2 cells, competitor TNFα-biotin; AUC against 219-WT).
Experimental: (§1) CHO stable cells highly expressing human TNFR2 were used for the experiment (the same as CHO-TNFR2 in Example 4). The CHO-TNFR2 cells were digested, washed twice with DPBS, then stained with Live/Dead (L/D) (20 minutes at room temperature), and plated at a density of 1×10⁵ cells/50 μl/well. A test anti-TNFR2 antibody was diluted to 6 μg/ml with a staining buffer as the starting concentration: the antibody was subjected to 3.33-fold gradient dilution, with a total of 7 concentration points. The diluted antibody was added to the plated cells at 50 μl/well, and the mixture was mixed well by gentle pipetting, and incubated at 4° C. for 30 minutes. Then the diluted 100 ng/ml of human TNFα-biotin was added at 100 μl/well, and the mixture was mixed well by gentle pipetting, and then incubated at 4° C. for 30 minutes. The mixture was washed twice with a staining buffer, and then 0.12 μg/ml PE-streptavidin (BioLegend, Cat #405204) was added at 100 μl/well; the resulting mixture was incubated at 4° C. for 30 minutes. The mixture was washed twice with a staining buffer, and then 150 μl of staining buffer was added to resuspend the cells; signals were detected by a flow cytometer (Thermo Attune NxT). The inhibitory curve of an antibody was drawn with antibody concentration as the abscissa and corresponding MFI value as the ordinate, and fitted with four parameters (GraphPad Prism9) to calculate the IC50 value. The smaller the IC50 value, the stronger the ability of an antibody to inhibit the binding of human TNFα to human TNFR2. The blocking effect of a humanized antibody was normalized to its corresponding human-murine chimeric WT antibody. The higher the percentage value, the better the inhibitory effect of the humanized antibody.

**Q.** Which “% Relative activity (WT antibody/test antibody)” value does the source give for B6 here?
**A.** 98.5%

**Q.** B7 was tested. Which “% Relative activity (WT antibody/test antibody)” value did it give?
**A.** 102%

**Q.** B8 was tested. Which “% Relative activity (WT antibody/test antibody)” value did it give?
**A.** 102%

**Q.** For B9, which “% Relative activity (WT antibody/test antibody)” value is on record?
**A.** 108%

**Q.** How did the “% Relative activity (WT antibody/test antibody)” value turn out when B10 was run?
**A.** 109%

The binders below were run against T1, human TNFR2 on the surface of CHO-TNFR2 … (assay: competition flow cytometry on CHO-TNFR2 cells, competitor TNFα-biotin; IC50 against 224-WT).
Experimental: as §1

**Q.** For B11, which “% Relative activity (WT antibody/test antibody)” value is on record?
**A.** 108%

**Q.** For B12, which “% Relative activity (WT antibody/test antibody)” value is on record?
**A.** 96%

**Q.** For B13, which “% Relative activity (WT antibody/test antibody)” value is on record?
**A.** 73%

**Q.** How did the “% Relative activity (WT antibody/test antibody)” value turn out when B14 was run?
**A.** 124%

**Q.** For B15, which “% Relative activity (WT antibody/test antibody)” value is on record?
**A.** 107%

**Q.** For B16, which “% Relative activity (WT antibody/test antibody)” value is on record?
**A.** 102%

**Q.** B17 was tested. Which “% Relative activity (WT antibody/test antibody)” value did it give?
**A.** 95%
